Measurements as given in patent publication US10704056B2, “Constitutively active ABA receptor mutants” (The Regents of the University of California, priority 2011, dated 2020).

Target: T1, ABI2 (Arabidopsis thaliana, UniProt O04719)
T1 construct: Full length ABI1 and ABI2 were cloned into a modified pSUMO vector; made in house; host or cells: E. coli BL21 (DE3) pLysS
T1 sequence (O04719 1-423): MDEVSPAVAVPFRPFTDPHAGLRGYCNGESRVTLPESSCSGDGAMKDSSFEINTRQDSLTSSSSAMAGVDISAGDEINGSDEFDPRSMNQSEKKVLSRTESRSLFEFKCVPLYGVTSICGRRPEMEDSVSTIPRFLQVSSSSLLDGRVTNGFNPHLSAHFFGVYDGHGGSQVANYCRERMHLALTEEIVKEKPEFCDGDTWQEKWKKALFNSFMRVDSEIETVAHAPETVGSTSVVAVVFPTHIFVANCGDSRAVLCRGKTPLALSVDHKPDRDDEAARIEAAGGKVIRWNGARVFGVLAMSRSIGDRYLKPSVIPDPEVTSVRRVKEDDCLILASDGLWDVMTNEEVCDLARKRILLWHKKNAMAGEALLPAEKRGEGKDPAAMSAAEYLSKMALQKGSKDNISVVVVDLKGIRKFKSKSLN
Experiment: In vitro PP2C phosphatase (pNPP) receptor activation assay with ABI2
Format: biochemical
Conditions: 600 nM PP2C, 0-4800 nM receptor, no ABA
Protocol: Full length ABI1 and ABI2 were cloned into a modified pSUMO vector (LifeSensors Inc, USA) vector yielding 6×His-SUMO fusion proteins; GST-HAB1 was expressed and purified as previously described (Park et al., 2009). Mutant receptors were cloned into pET28 yielding 6×His-fusion proteins. […]. The cultures were pre-incubated 2 hours at 30° C. and, for PP2C expression, media was supplemented with 4 mM MnCl2 one hour after inoculation. After pre-incubation, IPTG was added (1 mM) and cells were induced at 15° C. for 16 hours, after which they were collected by centrifugation, resuspended in 5 ml Buffer A (50 mM NaH2PO4, 300 mM NaCl) +10 mM imidazole, pH 8.0 and stored at −80° C. For purification, cells were thawed, sonicated on ice (60 seconds) and a cleared lysate was then applied a 1 ml-bed volume column of Ni-NTA (Qiagen, USA), washed with 20 column volumes of Buffer A+30 mM imidazole and bound protein eluted with 1 ml of Buffer A+250 mM imidazole. For receptors, the elutate was dialyzed against TBS and for PP2Cs, fusion proteins were desalted by passage over a Sephadex G50 column.
The purified receptors and phosphatases were then used in receptor assays where receptor activation is indicated by inhibition of phosphatase activity, as inferred from initial reaction velocities for PP2C-mediated hydrolysis of the synthetic phosphatase substrate pNPP in reactions containing 600 nM PP2C and either 0, 600, 1200, 2400 or 4800 nM receptor. The receptor assay buffer consisted of 33 mM Tris-OAc, pH 7.9, 66 mM KOAc, 0.1% BSA, 25 mM Mn(OAc)2, 0.1%13-ME and 50 mM pNPP. Immediately after mixing proteins and substrates, reactions were monitored for hydrolysis of pNPP at A405 at ˜2 minutes intervals using a Wallac plate reader. Reaction progressions were plotted, initial velocities calculated and converted to specific activities by comparison to a standard curve for 4-nitrophenol made in the same buffer system. PP2C activity values shown in figures are expressed as %-control phosphatase activity levels, as measured under identical reaction conditions in the absence of receptor protein. The average specific activity level of GST-HAB1, 6×His-SUMO-ABI1 and 6×His-SUMO-ABI2 utilized in our experiments was 4500 (GST-PP2C) or 2500 (SUMO-PP2C) μmol/min/mg, when assayed using the phosphatase substrate pNPP in the absence of PYR1 or other receptors.

B1: PYL2^CA3: PYL2 mutant (H65P, V87F, F165V); expressed in plants as 35S-driven GFP fusion (protein)
chain: HHHHHHMSSSPAVKGLTDEEQKTLEPVIKTYHQFEPDPTTCTSLITQRIHAPASVVWPLIRRFDNPERYKPFVKRCRLISGDGDVGSVREVTFISGLPASTSTERLEFVDDDHRVLSFRVVGGEHRLKNYKSVTSVNEFLNQDSGKVYTVVLESYTVDIPEGNTEEDTKMVVDTVVKLNLQKLGVAATSAPMHDDE
constitutive receptor activity on ABI2 in the absence of ABA: active towards multiple PP2Cs
